# B1: PilE: pglC null (protein)
# parent chain: MNTLQKGFTLIELMIVIAIVGILAAVALPAYQDYTARAQVSEAILLAEGQKSAVTEYYLNHGKWPENNTSAGVASPPSDIKGKYVKEVEVKNGVVTATMLSSGVNNEIKGKKLSLWARRENGSVKWFCGQPVTRTDDDTVADAKDGKEIDTKHLPSTCRDNFDAK
# B2: PilE: pglE ON (trisaccharide) in 2xpilE and 3xpilE (protein)
# parent chain: B1 parent chain
# B3: PilE: pglE ON pilF (trisaccharide) (protein)
# parent chain: B1 parent chain
# Key:
# [1] = TEPC-15 immunoblot, whole cell lysates; settings: control: wild-type pgl (disaccharide Ac-Gal-diNAcBac), same pilE copy number
# [2] = TEPC-15 immunoblot, pilF mutant lysates; settings: glycan gained; control: pglC pilF (no glycan)
protein,measurement,setting,value
B1,other: phosphocholine modification of PilE,[1]; glycan lost,increases
B2,other: phosphocholine modification of PilE,[1]; glycan changed form,decreases
B3,other: phosphocholine modification of PilE,[2],no change
